Reference: the supplement of paper PMC10065799, “High-throughput profiling of sequence recognition by tyrosine kinases and SH2 domains using bacterial peptide display” (eLife, 2023)

How the values were obtained:
[1] = system: AncSZ; test: phosphorylation enrichment, bacterial display (enrichment ratio); higher = better substrate or ligand; peptides without Tyr show the background
[2] = biological target: EPHB1 (UniProt P54762); test: as above
[3] = biological target: EPHB2 (UniProt P29323); test: as above
EPHB2, sequence (P29323 whole entry, looked up): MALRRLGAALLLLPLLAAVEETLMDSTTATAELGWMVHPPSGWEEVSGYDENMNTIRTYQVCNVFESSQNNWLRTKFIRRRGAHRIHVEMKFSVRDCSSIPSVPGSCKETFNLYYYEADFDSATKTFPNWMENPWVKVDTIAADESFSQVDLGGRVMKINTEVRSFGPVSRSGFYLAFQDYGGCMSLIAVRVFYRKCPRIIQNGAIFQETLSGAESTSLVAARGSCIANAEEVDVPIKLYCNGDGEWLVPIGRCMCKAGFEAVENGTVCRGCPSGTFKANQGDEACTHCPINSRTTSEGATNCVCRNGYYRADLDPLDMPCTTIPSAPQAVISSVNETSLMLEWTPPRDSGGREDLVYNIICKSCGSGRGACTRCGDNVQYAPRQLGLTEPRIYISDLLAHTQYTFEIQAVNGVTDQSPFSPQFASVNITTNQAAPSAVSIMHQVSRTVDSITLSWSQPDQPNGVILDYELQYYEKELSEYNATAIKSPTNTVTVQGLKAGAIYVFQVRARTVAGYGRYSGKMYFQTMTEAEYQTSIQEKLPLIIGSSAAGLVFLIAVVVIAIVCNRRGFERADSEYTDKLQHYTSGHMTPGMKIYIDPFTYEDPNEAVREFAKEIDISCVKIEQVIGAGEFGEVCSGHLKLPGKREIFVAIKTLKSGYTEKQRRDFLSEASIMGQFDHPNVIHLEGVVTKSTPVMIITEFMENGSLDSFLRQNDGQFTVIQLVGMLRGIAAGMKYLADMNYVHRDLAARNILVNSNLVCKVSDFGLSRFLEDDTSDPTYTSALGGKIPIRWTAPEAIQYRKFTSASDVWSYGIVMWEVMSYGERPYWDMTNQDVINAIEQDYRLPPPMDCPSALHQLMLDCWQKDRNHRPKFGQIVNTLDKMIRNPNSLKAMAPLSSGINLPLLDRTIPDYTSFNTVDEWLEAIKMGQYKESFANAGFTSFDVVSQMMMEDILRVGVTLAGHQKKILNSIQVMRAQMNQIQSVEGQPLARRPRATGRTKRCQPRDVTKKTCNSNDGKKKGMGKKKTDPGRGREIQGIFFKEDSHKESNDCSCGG

[4] = biological target: FGFR1 (UniProt P11362); test: as above
[5] = biological target: FGFR3 (UniProt P22607); test: as above
FGFR3, sequence (P22607 whole entry, looked up): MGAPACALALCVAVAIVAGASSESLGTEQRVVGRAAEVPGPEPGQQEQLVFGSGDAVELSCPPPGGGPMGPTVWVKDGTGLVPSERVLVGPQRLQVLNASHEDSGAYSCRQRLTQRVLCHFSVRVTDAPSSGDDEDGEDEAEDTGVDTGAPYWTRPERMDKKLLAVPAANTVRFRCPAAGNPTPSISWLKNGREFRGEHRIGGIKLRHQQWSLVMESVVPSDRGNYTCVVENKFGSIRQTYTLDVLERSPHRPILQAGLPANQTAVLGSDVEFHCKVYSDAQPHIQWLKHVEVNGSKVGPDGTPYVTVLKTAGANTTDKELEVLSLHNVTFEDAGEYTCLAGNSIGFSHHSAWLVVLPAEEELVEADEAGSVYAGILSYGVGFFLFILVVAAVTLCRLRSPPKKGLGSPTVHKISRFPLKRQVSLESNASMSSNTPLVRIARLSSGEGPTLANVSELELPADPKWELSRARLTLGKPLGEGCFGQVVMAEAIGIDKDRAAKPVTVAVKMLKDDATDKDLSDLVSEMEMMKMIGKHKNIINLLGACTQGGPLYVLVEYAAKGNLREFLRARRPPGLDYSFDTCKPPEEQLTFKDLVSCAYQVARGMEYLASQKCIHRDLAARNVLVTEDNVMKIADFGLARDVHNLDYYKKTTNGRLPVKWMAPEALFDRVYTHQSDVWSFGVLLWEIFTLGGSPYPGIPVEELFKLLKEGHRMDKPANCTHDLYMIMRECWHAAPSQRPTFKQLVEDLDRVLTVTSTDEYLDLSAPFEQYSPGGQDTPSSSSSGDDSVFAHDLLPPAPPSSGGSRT

[6] = system: Fer (mouse); test: as above
[7] = biological target: Fes (UniProt P07332); test: as above
[8] = biological target: Fyn (UniProt P06241); test: as above
Fyn, sequence (P06241 whole entry, looked up): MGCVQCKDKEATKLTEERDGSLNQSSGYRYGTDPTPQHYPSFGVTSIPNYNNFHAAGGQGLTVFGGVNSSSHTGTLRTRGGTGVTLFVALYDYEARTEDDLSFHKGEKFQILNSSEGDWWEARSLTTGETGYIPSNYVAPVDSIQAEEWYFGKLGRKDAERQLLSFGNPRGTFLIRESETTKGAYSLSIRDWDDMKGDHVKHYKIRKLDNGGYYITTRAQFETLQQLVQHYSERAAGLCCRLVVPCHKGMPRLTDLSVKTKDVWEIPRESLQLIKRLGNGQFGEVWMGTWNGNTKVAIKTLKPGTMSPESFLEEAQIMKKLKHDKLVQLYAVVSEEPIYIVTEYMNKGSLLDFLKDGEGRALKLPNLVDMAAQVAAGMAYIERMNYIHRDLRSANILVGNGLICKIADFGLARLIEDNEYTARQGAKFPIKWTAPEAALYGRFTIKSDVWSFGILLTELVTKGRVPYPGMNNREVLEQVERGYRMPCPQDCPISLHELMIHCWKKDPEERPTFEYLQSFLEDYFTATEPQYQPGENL

[9] = biological target: Hck (UniProt P08631); test: as above
Hck, sequence (P08631 whole entry, looked up): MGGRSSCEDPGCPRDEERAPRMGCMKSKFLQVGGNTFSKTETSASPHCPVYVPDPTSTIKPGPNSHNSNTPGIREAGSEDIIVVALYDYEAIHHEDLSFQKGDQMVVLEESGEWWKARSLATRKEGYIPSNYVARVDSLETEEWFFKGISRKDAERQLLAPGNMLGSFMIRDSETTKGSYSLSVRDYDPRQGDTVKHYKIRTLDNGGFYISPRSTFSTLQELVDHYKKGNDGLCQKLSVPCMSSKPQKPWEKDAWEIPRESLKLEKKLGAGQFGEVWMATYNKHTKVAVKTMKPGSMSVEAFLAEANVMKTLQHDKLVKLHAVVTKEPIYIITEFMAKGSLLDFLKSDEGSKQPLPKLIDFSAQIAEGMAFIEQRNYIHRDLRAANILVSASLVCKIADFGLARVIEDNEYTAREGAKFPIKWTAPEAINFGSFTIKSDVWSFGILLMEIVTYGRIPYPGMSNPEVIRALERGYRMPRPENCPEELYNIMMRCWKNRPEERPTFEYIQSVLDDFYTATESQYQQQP

[10] = biological target: Jak2 (UniProt O60674); test: as above
Jak2, sequence (O60674 whole entry, looked up): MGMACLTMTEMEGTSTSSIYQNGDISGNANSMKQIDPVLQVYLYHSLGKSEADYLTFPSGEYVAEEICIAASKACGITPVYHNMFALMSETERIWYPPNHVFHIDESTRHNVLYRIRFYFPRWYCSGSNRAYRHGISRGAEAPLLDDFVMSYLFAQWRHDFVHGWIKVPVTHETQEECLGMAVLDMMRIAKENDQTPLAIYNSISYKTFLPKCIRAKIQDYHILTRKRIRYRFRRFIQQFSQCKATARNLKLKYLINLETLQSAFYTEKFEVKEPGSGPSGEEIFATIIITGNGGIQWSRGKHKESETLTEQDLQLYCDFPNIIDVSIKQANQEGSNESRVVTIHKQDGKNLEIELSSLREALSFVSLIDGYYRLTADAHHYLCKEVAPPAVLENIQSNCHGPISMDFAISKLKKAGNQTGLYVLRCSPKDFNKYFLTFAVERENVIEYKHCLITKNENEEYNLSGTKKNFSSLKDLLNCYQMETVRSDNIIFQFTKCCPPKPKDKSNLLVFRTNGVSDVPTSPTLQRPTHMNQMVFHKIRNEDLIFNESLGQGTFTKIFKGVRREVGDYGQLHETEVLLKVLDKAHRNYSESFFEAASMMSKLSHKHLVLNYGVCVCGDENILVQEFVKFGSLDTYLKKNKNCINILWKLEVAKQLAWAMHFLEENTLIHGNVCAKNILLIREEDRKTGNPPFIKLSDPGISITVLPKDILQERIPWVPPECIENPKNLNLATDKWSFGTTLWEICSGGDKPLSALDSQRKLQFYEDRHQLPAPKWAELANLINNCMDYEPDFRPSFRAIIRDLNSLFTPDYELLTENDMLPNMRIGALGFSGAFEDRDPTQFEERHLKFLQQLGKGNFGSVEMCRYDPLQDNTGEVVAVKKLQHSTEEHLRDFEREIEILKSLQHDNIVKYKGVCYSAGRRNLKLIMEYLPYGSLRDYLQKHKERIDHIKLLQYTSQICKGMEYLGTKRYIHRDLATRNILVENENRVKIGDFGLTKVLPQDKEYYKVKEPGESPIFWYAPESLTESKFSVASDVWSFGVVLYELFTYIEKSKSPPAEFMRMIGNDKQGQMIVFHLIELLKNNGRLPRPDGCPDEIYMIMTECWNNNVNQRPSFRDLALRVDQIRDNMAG

[11] = biological target: MERTK (UniProt Q12866); test: as above
MERTK, sequence (Q12866 whole entry, looked up): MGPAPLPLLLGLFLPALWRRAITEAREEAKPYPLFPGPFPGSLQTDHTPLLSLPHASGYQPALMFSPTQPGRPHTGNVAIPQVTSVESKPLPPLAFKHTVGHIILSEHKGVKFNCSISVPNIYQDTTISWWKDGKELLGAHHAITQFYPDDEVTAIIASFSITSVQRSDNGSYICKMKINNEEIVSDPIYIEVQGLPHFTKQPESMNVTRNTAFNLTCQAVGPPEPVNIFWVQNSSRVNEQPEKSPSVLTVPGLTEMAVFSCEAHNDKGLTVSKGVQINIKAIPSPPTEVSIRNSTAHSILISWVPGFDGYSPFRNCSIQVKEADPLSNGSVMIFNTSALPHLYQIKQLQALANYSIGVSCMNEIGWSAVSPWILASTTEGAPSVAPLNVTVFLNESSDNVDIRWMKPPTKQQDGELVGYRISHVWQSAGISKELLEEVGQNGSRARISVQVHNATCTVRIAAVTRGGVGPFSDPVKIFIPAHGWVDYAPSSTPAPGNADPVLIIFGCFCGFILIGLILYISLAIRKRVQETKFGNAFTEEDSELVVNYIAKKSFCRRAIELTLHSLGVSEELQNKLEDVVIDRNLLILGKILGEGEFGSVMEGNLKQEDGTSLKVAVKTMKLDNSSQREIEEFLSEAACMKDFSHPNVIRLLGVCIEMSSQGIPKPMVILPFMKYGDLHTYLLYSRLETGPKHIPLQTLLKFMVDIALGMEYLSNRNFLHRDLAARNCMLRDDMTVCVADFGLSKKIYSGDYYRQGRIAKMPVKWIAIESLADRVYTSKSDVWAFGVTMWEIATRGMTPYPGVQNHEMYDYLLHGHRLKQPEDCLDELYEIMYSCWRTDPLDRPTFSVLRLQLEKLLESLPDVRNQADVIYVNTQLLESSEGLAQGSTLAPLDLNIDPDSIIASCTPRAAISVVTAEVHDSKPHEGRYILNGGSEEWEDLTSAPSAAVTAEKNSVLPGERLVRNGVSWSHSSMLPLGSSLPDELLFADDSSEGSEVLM

[12] = system: c-Abl (mouse); test: as above
[13] = system: c-Src; test: as above
[14] = biological target: Grb2 SH2 (UniProt P62993); test: SH2 binding enrichment of the phosphorylated peptide, bacterial display (enrichment ratio); higher = better substrate or ligand; peptides without Tyr show the background
[15] = biological target: SHP2-C SH2; test: as above
[16] = biological target: c-Src SH2; test: as above
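Throughout, for SH2 binding enrichment of the phosphorylated peptide, bacterial display: peptide library displayed on the E. coli surface as eCPX fusions, selected cells deep-sequenced, score is each peptide's frequency after selection divided by its frequency in the input.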
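Throughout, for phosphorylation enrichment, bacterial display: 11-residue human phosphosite peptides and single-mutation variants displayed on the E. coli surface, counted by deep sequencing, each peptide's frequency after selection divided by its frequency in the unselected input library; frequency after pTyr selection over input frequency; kinase dosed for 20-30% of maximal phosphorylation in three min.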

Row | SH2 binding enrichment [14] | SH2 binding enrichment [15] | SH2 binding enrichment [16] | Sequence | phosphorylation enrichment [1] | phosphorylation enrichment [2] | phosphorylation enrichment [3] | phosphorylation enrichment [4] | phosphorylation enrichment [5] | phosphorylation enrichment [6] | phosphorylation enrichment [7] | phosphorylation enrichment [8] | phosphorylation enrichment [9] | phosphorylation enrichment [10] | phosphorylation enrichment [11] | phosphorylation enrichment [12] | phosphorylation enrichment [13]
1 | 0.82 | 0.722 | 1.66 | GSERDYTYDEL [EIF2S2_Y174_E177D] | 1.14 | 0.504 | 0.879 | 0.507 | 0.614 | 0.617 | 1.01 | 0.59 | 0.849 | 0.999 | 0.424 | 0.803 | 0.766
2 | 0.835 | 0.715 | 0.522 | VLTSKYHGGGG [HBA1_Y141_R142H] | 0.475 | 0.336 | 0.365 | 0.772 | 0.304 | 0.315 | 0.549 | 0.364 | 0.391 | 0.509 | 0.494 | 0.617 | 0.407
3 | 1.88 | 1.5 | 1.14 | SLLVVYPWTQR [HBB_Y36_R31S] | 1.05 | 0.462 | 0.544 | 0.438 | 0.513 | 0.398 | 1.01 | 0.516 | 0.395 | 0.804 | 0.374 | 0.602 | 0.36
4 | 0.956 | 1.03 | 0.557 | REAAAYLHGRL [AGXT_Y297] | 0.891 | 0.322 | 0.571 | 0.671 | 0.595 | 0.502 | 1.03 | 0.543 | 0.479 | 1 | 0.584 | 1.04 | 0.655
5 | 0.739 | 0.701 | 1.44 | LGRGKYSEVFE [CSNK2A1_Y50] | 1.01 | 0.514 | 0.798 | 0.685 | 0.805 | 0.478 | 1.19 | 1.19 | 0.768 | 0.929 | 0.753 | 0.924 | 0.704
6 | 24.5 | 3.5 | 18.4 | GHLYANDWISI [BEST1_Y227_Y227N] | 0.819 | 0.778 | 0.619 | 0.609 | 0.674 | 0.527 | 0.871 | 0.734 | 0.575 | 0.878 | 3.32 | 0.587 | 0.683
7 | 0.728 | 0.678 | 3.83 | EYDRLYEEYTR [PIK3R1_Y467] | 2.49 | 4.27 | 7 | 0.826 | 0.889 | 6.02 | 1.43 | 7.8 | 6.46 | 1.21 | 2.8 | 1.34 | 5.99
8 | 3.12 | 1.12 | 0.802 | RTLIRYANLGN [BEST1_Y131] | 1.03 | 0.918 | 0.666 | 0.621 | 0.654 | 0.737 | 1.14 | 0.973 | 0.481 | 0.793 | 0.706 | 1.04 | 0.685
9 | 0.856 | 0.702 | 0.449 | DWRQEYVLNES [TGM1_Y267] | 1.23 | 0.55 | 0.817 | 0.878 | 0.909 | 0.558 | 1.15 | 0.593 | 0.686 | 0.863 | 0.53 | 0.677 | 1.36
10 | 1.03 | 0.687 | 4.16 | IKAGAYDFPSP [CAMK2A_Y230] | 0.811 | 0.362 | 0.416 | 0.397 | 0.462 | 1.43 | 0.708 | 0.747 | 0.419 | 0.548 | 4.85 | 0.551 | 0.485
11 | 1.14 | 0.815 | 0.649 | PFTDPYFDFEI [ZC3H18_Y371_A368T_YF] | 2.52 | 0.835 | 0.64 | 16.2 | 12.4 | 2 | 1.88 | 2.06 | 1.17 | 2.84 | 0.898 | 1.03 | 5.82
12 | 1.05 | 0.81 | 0.782 | NTADYYDLYGG [PTPN11_Y63_G60A] | 3.44 | 14.9 | 14.7 | 16.2 | 15.3 | 1.59 | 1.47 | 6.09 | 5.89 | 3.39 | 3.04 | 1.13 | 5.99
13 | 0.79 | 0.508 | 0.486 | EKEQNYDLTQV [ECD_Y448_E452Q] | 1.24 | 0.513 | 0.612 | 0.612 | 0.782 | 1.17 | 1.33 | 0.557 | 0.528 | 1.07 | 0.569 | 1.42 | 0.506
14 | 1.09 | 1.08 | 1.55 | SFLFHYADDSF [RAB3C_Y50_R49H] | 0.905 | 0.498 | 0.549 | 0.438 | 0.671 | 0.465 | 1.12 | 0.476 | 0.399 | 0.958 | 0.412 | 0.718 | 0.466
15 | 0.603 | 0.362 | 0.631 | AIGCEYSEINI [SIGLEC12_Y588_Y586C] | 1.94 | 1.24 | 0.797 | 3.95 | 2.99 | 5.32 | 1.27 | 1.79 | 2.42 | 0.924 | 0.492 | 0.928 | 2.47
16 | 2.51 | 0.773 | 5.18 | PYSSPYENSLI [EPOR_Y489_N487S] | 0.83 | 0.39 | 0.596 | 0.527 | 0.506 | 2.52 | 0.924 | 0.668 | 0.705 | 0.929 | 0.683 | 0.902 | 0.875
17 | 0.951 | 0.665 | 0.444 | DKMEAYNINET [TEKT4_Y210_D213N] | 1.09 | 0.488 | 0.535 | 0.481 | 0.663 | 0.489 | 1.27 | 0.505 | 0.535 | 1.13 | 0.492 | 0.808 | 0.577
18 | 1.61 | 1.51 | 1.32 | SRNKPYISWPS [CDC42BPB_Y1638] | 0.583 | 0.417 | 0.395 | 0.469 | 0.511 | 0.345 | 0.612 | 0.436 | 0.485 | 0.977 | 0.441 | 0.477 | 0.483
19 | 0.857 | 0.589 | 0.582 | EDASEYYENYI [PARP4_Y214_F215Y] | 1.93 | 0.782 | 0.761 | 1.66 | 1.6 | 0.995 | 1.3 | 0.738 | 0.666 | 1.02 | 0.467 | 0.716 | 1.02
20 | 0.626 | 0.531 | 0.382 | FDDGKYVFVVT [RPS6KA3_Y488_YF] | 1.38 | 0.652 | 0.545 | 0.632 | 0.911 | 0.513 | 1.49 | 0.493 | 0.572 | 1.46 | 0.474 | 0.995 | 0.507
21 | 0.846 | 0.557 | 0.716 | YQGGTYSKAST [FGG_Y380] | 0.867 | 0.33 | 0.419 | 0.423 | 0.43 | 0.387 | 0.526 | 0.449 | 0.424 | 0.373 | 0.43 | 0.388 | 0.424
22 | 0.746 | 0.654 | 0.596 | LTERGYSFTTT [ACTB_Y198] | 0.837 | 0.472 | 0.492 | 0.504 | 0.78 | 0.554 | 0.758 | 0.456 | 0.432 | 0.756 | 0.408 | 0.586 | 0.46
23 | 1.82 | 1.74 | 1.23 | GIFKDYFRFNF [PLA2G2D_Y85_S80G_YF] | 1.16 | 0.57 | 0.47 | 4.19 | 2.94 | 0.507 | 1.18 | 0.501 | 0.579 | 3.79 | 0.56 | 0.897 | 0.622
24 | 0.737 | 0.511 | 0.408 | VTVLDYDKTGK [SYT1_Y365_I368T] | 0.591 | 0.365 | 0.46 | 0.463 | 0.439 | 0.411 | 0.712 | 0.442 | 0.426 | 0.517 | 0.335 | 0.452 | 0.398
25 | 0.937 | 0.672 | 0.422 | QKPLDYYRVNL [GALE_Y104] | 1.77 | 6.99 | 2.35 | 17.8 | 14.3 | 0.81 | 1.27 | 0.697 | 0.908 | 20.5 | 0.79 | 2.19 | 1.85
26 | 0.762 | 0.873 | 0.431 | GSESDYIIMPN [SCARB1_Y133_V135I] | 2.88 | 6.96 | 6.96 | 5.65 | 3.91 | 0.411 | 0.826 | 0.456 | 0.526 | 0.919 | 0.551 | 0.466 | 0.6
27 | 1.09 | 1.11 | 0.932 | RHPEVYHHLGI [NVL_Y290_V295I] | 0.694 | 0.837 | 0.599 | 1.14 | 0.999 | 0.641 | 0.835 | 0.908 | 1.53 | 0.834 | 0.71 | 0.731 | 0.621
28 | 1.41 | 1.23 | 1.25 | SFLSFYTSHVQ [NEFL_Y443_P440L_YF] | 1.21 | 0.758 | 0.697 | 0.531 | 0.682 | 0.503 | 1.3 | 0.421 | 0.428 | 1.1 | 0.533 | 0.693 | 0.462
29 | 0.9 | 1.14 | 0.516 | QKDIFYGLRSL [IGSF10_Y126_T124I] | 0.894 | 0.672 | 0.616 | 0.515 | 0.73 | 0.405 | 1.29 | 0.783 | 0.676 | 1.12 | 0.844 | 1.03 | 0.923
